Test results: patent US20090227507A1, “Angiotensin (1-7) Dosage Forms and Uses Thereof” (UNIVERSITY OF SOUTHERN CALIFORNIA, priority 2008, published 2009)

Assays:
[1] = Renal laboratory values (serum creatinine, creatinine clearance, 24-hour urine) in healthy men; settings: human, in vivo
Experimental: USB003 was administered SC in the abdomen by a qualified study staff member 24 hours after the previous (Day 6) injection.
Blood, urobilinogen, ketones, glucose, protein, microscopic examination of sediment, sodium, and potassium.

[2] = system: CD3 cells in peripheral blood; assay: Flow cytometry of peripheral blood, CD3 lymphocytes; USB003 SC once daily for 7 days in healthy men; format: in vivo, human; set-up: key to Subjects with shift, Absolute CD3, N-L (normal to low) / Subjects with shift, Absolute CD3, N-H (normal to high) / Subjects with shift, Absolute CD3, L-N (low to normal) / Subjects with shift, Absolute CD3, H-N (high to normal): — signifies subject with no shift from baseline; settings: for CD3, Absolute, Mean at Baseline: Baseline (Day 1)
Experimental: • Single-center, randomized, double-blind, placebo-controlled, 2 cohort dose-escalation trial of once daily dosing over a 7-day period (7 doses total): • Cohort 1: 2 subjects treated with placebo and 8 subjects treated with 200 μg/kg USB003 (A(1-7)) • Cohort 2: 2 subjects treated with placebo and 8 subjects treated with 300 μg/kg USB003 • For each cohort, there was a Screening Period, Treatment Phase, Follow-up Period, and Study Termination or Early Withdrawal Day. Subjects were confined to the study unit during the Treatment Phase. • Cohort 2 was treated approximately 1 week after completion of the Treatment Phase for Cohort 1 to allow time for the assessment of safety and tolerability in the first cohort.
Pharmacological Effect: The following evaluations (under efficacy and safety in the protocol) were performed: • Effects on the number of mature blood cells: • 1. CBC (with differential), platelet count, reticulocyte count. • Effects on early hematopoietic progenitor cells and mature lymphocyte subsets in the periphery: • 1. Flow cytometry to evaluate frequency of peripheral blood progenitor cells (eg, CD34^+) and lymphocyte subsets (eg, CD3, CD4, CD8) in peripheral blood. • 2. Collection of blood for later possible culture for progenitor cells (eg, colony forming units-granulocyte/macrophage [CFU-GM]) to evaluate potential effects on CD34^+ hematopoietic progenitor cells in peripheral blood. • 3.
The effect of USB003 on the number of mature blood cells was assessed by the complete blood count with differential, platelet and reticulocyte counts. The effects on early hematopoietic progenitor cells and mature lymphocyte subsets in the periphery were assessed by flow cytometry. In addition, blood was collected and processed to enable culture of progenitors at a later time.
Red blood cell (RBC) count, RBC indices, white blood cell count (WBC) with differential, reticulocyte count, platelet count, hemoglobin (Hb), hematocrit (Hct), plasma hemoglobin, peripheral flow cytometry, including CD34^+, flow cytometry for enumeration of CD3, CD4, and CD8 lymphocytes, and culture for progenitor cells in peripheral blood including colony-forming units-granulocyte/macrophage (CFU-GM).

[3] = Clinical chemistry in healthy men; settings: for Potassium shift H-N, number of subjects / Potassium shift L-N, number of subjects / Potassium shift N-H, number of subjects / Potassium shift N-L, number of subjects: Chemistry; for AST/SGOT High/Low Normal/Abnormal: Subject 027, 200 μg/kg
Experimental: Safety evaluations are based on AEs, PEs, vital signs, temperature, and laboratory results from baseline to study completion. Laboratory measurements were conducted by a local clinical laboratory. Using standard procedures, blood samples were drawn or urine collected from subjects for the following laboratory tests:
Aspartate aminotransferase (AST), alanine aminotransferase (ALT), gamma, glutamyltranferase (GGT), creatinine, creatine kinase, sodium, potassium, bicarbonate (CO2), chloride, glucose, magnesium, calcium, inorganic phosphorous, blood urea nitrogen (BUN), total protein, albumin, total bilirubin, direct and indirect bilirubin, uric acid, and alkaline phosphatase,

[4] = 200 μg/kg, N = 9, baseline to Day 8
[5] = 300 μg/kg, N = 8, baseline to Day 8

Substance: Asp-Arg-Val-Tyr-Ile-His-Pro [USB003]
- Creatinine Clearance shift L-N, number of subjects ([1]; 200 ug/kg): 3
- creatinine clearance ([1]; 200 ug/kg): increase
- subjects with creatinine clearance shifted from low to normal ([1]; 200 ug/kg): 3 of the 9
- Creatinine Clearance shift L-N, number of subjects ([1]; 300 ug/kg): 2
- Creatinine Clearance shift N-L, number of subjects ([1]; 300 ug/kg): 1
- increase in creatinine clearance ([1]; 300 ug/kg): not observed
- subjects with creatinine clearance shifted from low to normal ([1]; 300 ug/kg): 2 of the 8
- CD3, Absolute, Mean at Baseline ([2]; 200 μg/kg): 1732.3 cells/μL
- Subjects with shift, Absolute CD3, H-N (high to normal) ([2]; 200 μg/kg, Baseline to Day 8): 1
- Subjects with shift, Absolute CD3, L-N (low to normal) ([2]; 200 μg/kg, Baseline to Day 8): —
- Subjects with shift, Absolute CD3, N-H (normal to high) ([2]; 200 μg/kg, Baseline to Day 8): —
- Subjects with shift, Absolute CD3, N-L (normal to low) ([2]; 200 μg/kg, Baseline to Day 8): —
- Subjects with shift, Absolute CD3, H-N (high to normal) ([2]; 200 μg/kg, Baseline to Day 20): 1
- Subjects with shift, Absolute CD3, L-N (low to normal) ([2]; 200 μg/kg, Baseline to Day 20): —
- Subjects with shift, Absolute CD3, N-H (normal to high) ([2]; 200 μg/kg, Baseline to Day 20): —
- Subjects with shift, Absolute CD3, N-L (normal to low) ([2]; 200 μg/kg, Baseline to Day 20): —
- CD3, Absolute, Mean Change from Baseline ([2]; 200 μg/kg, Day 3): −115.8 cells/μL
- CD3, Absolute, Mean Change from Baseline ([2]; 200 μg/kg, Day 5): 70.6 cells/μL
- CD3, Absolute, Mean Change from Baseline ([2]; 200 μg/kg, Day 7): 53.9 cells/μL
- CD3, Absolute, Mean Change from Baseline ([2]; 200 μg/kg, Day 8): −32.0 cells/μL
- CD3, Absolute, Mean Change from Baseline ([2]; 200 μg/kg, Day 11): 122.0 cells/μL
- CD3, Absolute, Mean Change from Baseline ([2]; 200 μg/kg, Day 14): 60.0 cells/μL
- CD3, Absolute, Mean Change from Baseline ([2]; 200 μg/kg, Day 17): −121.1 cells/μL
- CD3, Absolute, Mean Change from Baseline ([2]; 200 μg/kg, Day 20): −63.6 cells/μL
- increase in CD3 (pan T cell marker) during study drug administration ([2]; 300 μg/kg/day, rapidly diminished after cessation of treatment): 15-20%
- CD3, Absolute, Mean at Baseline ([2]; 300 μg/kg): 1285.5 cells/μL
- Subjects with shift, Absolute CD3, H-N (high to normal) ([2]; 300 μg/kg, Baseline to Day 8): —
- Subjects with shift, Absolute CD3, L-N (low to normal) ([2]; 300 μg/kg, Baseline to Day 8): —
- Subjects with shift, Absolute CD3, N-H (normal to high) ([2]; 300 μg/kg, Baseline to Day 8): —
- Subjects with shift, Absolute CD3, N-L (normal to low) ([2]; 300 μg/kg, Baseline to Day 8): —
- Subjects with shift, Absolute CD3, H-N (high to normal) ([2]; 300 μg/kg, Baseline to Day 20): —
- Subjects with shift, Absolute CD3, L-N (low to normal) ([2]; 300 μg/kg, Baseline to Day 20): —
- Subjects with shift, Absolute CD3, N-H (normal to high) ([2]; 300 μg/kg, Baseline to Day 20): —
- Subjects with shift, Absolute CD3, N-L (normal to low) ([2]; 300 μg/kg, Baseline to Day 20): —
- CD3, Absolute, Mean Change from Baseline ([2]; 300 μg/kg, Day 3): 167.8 cells/μL
- CD3, Absolute, Mean Change from Baseline ([2]; 300 μg/kg, Day 5): 159.8 cells/μL
- CD3, Absolute, Mean Change from Baseline ([2]; 300 μg/kg, Day 7): 229.8 cells/μL
- CD3, Absolute, Mean Change from Baseline ([2]; 300 μg/kg, Day 8): 67.1 cells/μL
- CD3, Absolute, Mean Change from Baseline ([2]; 300 μg/kg, Day 11): −63.5 cells/μL
- CD3, Absolute, Mean Change from Baseline ([2]; 300 μg/kg, Day 14): 0.3 cells/μL
- CD3, Absolute, Mean Change from Baseline ([2]; 300 μg/kg, Day 17): −87.9 cells/μL
- CD3, Absolute, Mean Change from Baseline ([2]; 300 μg/kg, Day 20): 56.9 cells/μL
- ALT (SGPT) shift H-N, number of subjects [3, 4]: — (“—” = 0)
- ALT (SGPT) shift L-N, number of subjects [3, 4]: — (“—” = 0)
- ALT (SGPT) shift N-H, number of subjects [3, 4]: 1
- ALT (SGPT) shift N-L, number of subjects [3, 4]: — (“—” = 0)
- AST (SGOT) shift H-N, number of subjects [3, 4]: — (“—” = 0)
- AST (SGOT) shift L-N, number of subjects [3, 4]: — (“—” = 0)
- AST (SGOT) shift N-H, number of subjects [3, 4]: 1
- AST (SGOT) shift N-L, number of subjects [3, 4]: — (“—” = 0)
- BUN shift H-N, number of subjects [3, 4]: — (“—” = 0)
- BUN shift L-N, number of subjects [3, 4]: 1
- BUN shift N-H, number of subjects [3, 4]: — (“—” = 0)
- BUN shift N-L, number of subjects [3, 4]: — (“—” = 0)
- Magnesium shift H-N, number of subjects [3, 4]: — (“—” = 0)
- Magnesium shift L-N, number of subjects [3, 4]: — (“—” = 0)
- Magnesium shift N-H, number of subjects [3, 4]: — (“—” = 0)
- Magnesium shift N-L, number of subjects [3, 4]: 1
- Total CPK shift H-N, number of subjects [3, 4]: 1
- Total CPK shift L-N, number of subjects [3, 4]: — (“—” = 0)
- Total CPK shift N-H, number of subjects [3, 4]: — (“—” = 0)
- Total CPK shift N-L, number of subjects [3, 4]: — (“—” = 0)
- ALT, Subject 009 ([3]; 200 μg/kg, Day 8): 103 IU/L
- AST, Subject 009 ([3]; 200 μg/kg, Day 8): 66 IU/L
- ALT, Subject 009 ([3]; 200 μg/kg, Day 14): 61 IU/L
- AST, Subject 009 ([3]; 200 μg/kg, Day 14): 29 IU/L
- ALT (SGPT) shift H-N, number of subjects [3, 5]: — (“—” = 0)
- ALT (SGPT) shift L-N, number of subjects [3, 5]: — (“—” = 0)
- ALT (SGPT) shift N-H, number of subjects [3, 5]: — (“—” = 0)
- ALT (SGPT) shift N-L, number of subjects [3, 5]: — (“—” = 0)
- AST (SGOT) shift H-N, number of subjects [3, 5]: — (“—” = 0)
- AST (SGOT) shift L-N, number of subjects [3, 5]: — (“—” = 0)
- AST (SGOT) shift N-H, number of subjects [3, 5]: — (“—” = 0)
- AST (SGOT) shift N-L, number of subjects [3, 5]: — (“—” = 0)
- BUN shift H-N, number of subjects [3, 5]: — (“—” = 0)
- BUN shift L-N, number of subjects [3, 5]: 1
- BUN shift N-H, number of subjects [3, 5]: — (“—” = 0)
- BUN shift N-L, number of subjects [3, 5]: — (“—” = 0)
- Magnesium shift H-N, number of subjects [3, 5]: — (“—” = 0)
- Magnesium shift L-N, number of subjects [3, 5]: 1
- Magnesium shift N-H, number of subjects [3, 5]: — (“—” = 0)
- Magnesium shift N-L, number of subjects [3, 5]: — (“—” = 0)
- Total CPK shift H-N, number of subjects [3, 5]: — (“—” = 0)
- Total CPK shift L-N, number of subjects [3, 5]: — (“—” = 0)
- Total CPK shift N-H, number of subjects [3, 5]: — (“—” = 0)
- Total CPK shift N-L, number of subjects [3, 5]: — (“—” = 0)
- Potassium shift H-N, number of subjects [3, 4]: — (“—” = 0)
- Potassium shift L-N, number of subjects [3, 4]: — (“—” = 0)
- Potassium shift N-H, number of subjects [3, 4]: — (“—” = 0)
- Potassium shift N-L, number of subjects [3, 4]: — (“—” = 0)
- Potassium shift H-N, number of subjects [3, 5]: 1
- Potassium shift L-N, number of subjects [3, 5]: — (“—” = 0)
- Potassium shift N-H, number of subjects [3, 5]: — (“—” = 0)
- Potassium shift N-L, number of subjects [3, 5]: 1
- AST/SGOT High/Low Normal/Abnormal ([3]; Day 7 U (unscheduled)): N
- AST/SGOT High/Low Normal/Abnormal ([3]; Day 8): N
- mean change from baseline on any serum chemistry evaluations ([3]; baseline to Day 4 or Day 8): no notable effects
